For assay [1], the target named is T1, FUS-SNAP, P35637.
T1 chain: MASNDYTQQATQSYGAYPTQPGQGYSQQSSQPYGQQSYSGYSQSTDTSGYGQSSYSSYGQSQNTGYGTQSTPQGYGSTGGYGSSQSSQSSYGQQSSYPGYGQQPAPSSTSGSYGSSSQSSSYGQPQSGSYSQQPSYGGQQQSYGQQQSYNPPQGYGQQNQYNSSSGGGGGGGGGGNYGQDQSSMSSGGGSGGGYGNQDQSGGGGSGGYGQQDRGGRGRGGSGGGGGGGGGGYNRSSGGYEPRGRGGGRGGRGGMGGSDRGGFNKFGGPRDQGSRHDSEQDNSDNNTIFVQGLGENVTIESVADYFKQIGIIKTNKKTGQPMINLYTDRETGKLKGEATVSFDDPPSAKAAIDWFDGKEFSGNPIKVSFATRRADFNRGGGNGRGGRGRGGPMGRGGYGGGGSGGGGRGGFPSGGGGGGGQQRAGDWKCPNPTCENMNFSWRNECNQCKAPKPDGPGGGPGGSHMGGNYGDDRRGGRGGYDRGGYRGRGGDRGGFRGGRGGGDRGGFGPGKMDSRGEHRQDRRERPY
The assay can be described thus: nanoparticle tracking analysis. The settings on record: remark: other sources report otherwise.

Assay [2] has as its target T1, FUS-SNAP, P35637. The assay can be described thus: dynamic light scattering. Conditions: remark: other sources report otherwise.

B1: FUS-SNAP, P35637 1-526 (natural protein)
chain: T1 chain
As to B1, the percent of the protein molecules in mesoscale clusters (250 nM FUS-SNAP) with FUS-SNAP, P35637 [1] is 0.15%. Besides, the stoichiometry N (molecules per cluster) with FUS-SNAP, P35637 [2] is below 10.
